Patent publication US20210292423A1 (published 2021)
Where a chain is given by its changes, count along the chain named. Each block holds one binder with its values, some of them ahead of it.

What was measured:
[1] = target: T1, human CD3ε/δ-Fc fusion protein (soluble recombinant CD3ε/δ complex) (human, UniProt P04234 22-105); test: SPR Biacore, CODV-Fab
T1 construct: also called huCD3ε/δ; huCD3; not shown: hinge, CH2, CH3 of human IgG with tag
Experimental: (§1) Binding affinities of anti-CD3 binding Fabs or CODV-Fabs were measured by surface plasmon resonance (SPR) using a Biacore3000 instrument (GE Healthcare). Assay buffer was HBS-EP (BR-1001-88, GE Healthcare). Capture of CD3ε/δ-Fc fusion proteins was achieved using the human antibody capture kit (GE Healthcare). […] The CD3εδ-Fc fusions proteins were captured at 10 μl/min to approx. 70 RU to yield Rmax values of 30 RU. Binding kinetics with the anti-CD3 Fabs or CODV-Fabs was measured at 30 μl/min for 240 sec. and 600 sec. for association and dissociation phase, respectively. Twofold dilutions of Fabs from 3 to 400 nM in assay buffer were used. All Fab concentrations were run in duplicate together with duplicate buffer blanks for double referencing. Regeneration of the capture surface was performed with a 1 min injection of 3M MgCl2 solution at 30 μl/min. For data analysis the BIAevaluation software v.4.1 (GE Healthcare) was used. Data were fit globally using a 1:1 Langmuir model with mass transfer.

[2] = target: human CD123 (IL3RA) on cells (human, UniProt P26951 19-378); test: cell-based or functional assay
human CD123 (IL3RA) on cells, sequence (P26951 19-378): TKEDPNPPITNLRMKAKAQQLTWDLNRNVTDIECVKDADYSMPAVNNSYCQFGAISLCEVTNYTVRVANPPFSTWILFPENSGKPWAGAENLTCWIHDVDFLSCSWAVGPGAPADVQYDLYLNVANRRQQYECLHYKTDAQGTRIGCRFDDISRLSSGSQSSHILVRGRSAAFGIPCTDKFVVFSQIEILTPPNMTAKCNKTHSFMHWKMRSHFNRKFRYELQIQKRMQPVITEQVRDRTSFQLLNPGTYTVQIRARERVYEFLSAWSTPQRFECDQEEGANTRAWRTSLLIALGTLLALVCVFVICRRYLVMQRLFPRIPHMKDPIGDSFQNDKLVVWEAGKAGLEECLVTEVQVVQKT

[3] = target: T1, human CD3ε/δ-Fc fusion protein (soluble …); test: SPR Biacore, CODV-Fab on recombinant CD3ε/δ
Experimental: as §1

[4] = target: T1, human CD3ε/δ-Fc fusion protein (soluble …); test: SPR Biacore, Fab
Experimental: as §1

[5] = target: T1, human CD3ε/δ-Fc fusion protein (soluble …); test: SPR Biacore, Fab; remark: listed apart in the source
Experimental: as §1

[6] = target: T1, human CD3ε/δ-Fc fusion protein (soluble …); test: SPR, CD3-Fc captured, Fab 100 nM
Experimental: (§2) Binding was tested by SPR using a BIAcore3000 instrument run with HBS-EP buffer. Recombinant huCD3 proteins (ε/δ (PB01226), ε/γ (PB01225)) were captured at 10 μl/min via Fc-tag by anti-human Fc capture antibody MAB1302 (Millipore) immobilized on a CM5 sensor chip. Anti-CD3 Fabs were used as analytes at 100 nM with association and dissociation times of 240 sec and 300 sec, respectively at 30 μl/min. After each cycle the surfaces were regenerated by a 2 min pulse of 10 mM glycine buffer pH2.5.

[7] = target: recombinant huCD3ε/γ protein with Fc-tag (PB01225) (human, UniProt P07766 23-126; P09693 23-116); test: SPR, CD3-Fc captured, Fab 100 nM
Experimental: as §2

[8] = target: T2, human CD3ε expressed alone on HEK293F cells (human, UniProt P07766 23-207); test: flow cytometry, transfected HEK293F
T2 construct: also called huCD3ε
Experimental: (§3) To analyze binding of antibodies to human CD3ε and human CD3δ expressed on the surface of cells, HEK293F cells were transfected with both constructs either alone or in co-transfection and signals were measured by flow cytometry. For transfection procedure FuGENE HD Transfection Reagent (Promega, #E2311) was used according to manufacturer's protocol.
(§4) Antibodies for staining were seeded at 1 μg in 50 μl per well Stain Buffer with FBS (BD Pharmingen) in 96-well U-bottom suspension culture plates (Greiner bio-one). Harvested transfected cells were resuspended in Stain Buffer with FBS and were added at 50 μl per well to the antibodies. Cells were incubated at 4° C. in the dark for 30 min and were washed twice. 0.5 μg secondary antibody Goat F(ab′)2 Anti-Human IgG-FITC (Beckman Coulter, #732598) or Goat F(ab′)2 Anti-Human kappa-PE (Southern Biotech, #206209), respectively, in combination with 0.5 μg 7-AAD per well was added in 100 μl Stain Buffer with FBS. Cells were incubated at 4° C. in the dark for 15 min and were washed twice. For measurement, cells were resuspended in 200 μl Stain Buffer with FBS. Cells were measured using the MACSQuant (Miltenyi Biotec) or LSRII (BD) flow cytometer, respectively. Further data analyses were performed using the FlowJo software (Tree Star, Inc.).

[9] = target: T3, human CD3ε and CD3δ co-expressed on HEK293F cells (human, UniProt P07766 23-207; P04234 22-171); test: flow cytometry, transfected HEK293F
T3 construct: also called huCD3ε/δ (transfected cells); huCD3e + huCD3d
Experimental: as §3, §4

[10] = target: T4, human CD3 (TCR complex) on primary human T cells or Jurkat cells (human, UniProt P07766 23-207); test: flow cytometry, primary human T cells
T4 construct: on the cells it stands in the whole TCR/CD3 complex; also called Jurkat E6-1 (expressing human TCR)
Experimental: The binding capacity of the CD3-Fabs was determined by flow cytometry. Primary human T cells were used as target cells. Therefore, peripheral blood mononuclear cells (PBMCs) were isolated from 200 ml peripheral blood of healthy donors treated with EDTA by Ficoll density centrifugation. 15 ml Histopaque (Sigma-Aldrich) was preloaded on a 50 ml Leucosep-Tube (Greiner bio-one). Blood was diluted with autoMACS Rinsing Buffer+1% BSA (Miltenyi Biotec) and loaded on the membrane of a total of ten prepared tubes. Tubes were centrifuged without brake for 10 min at 1000 xg. PBMCs were collected and washed with autoMACS Rinsing Buffer+1% BSA three times. Finally, PBMCs were resuspended in autoMACS Running Buffer (Miltenyi Biotec) for isolation of T lymphocytes by autoMACSpro technology using the Pan T Cell isolation Kit (Miltenyi Biotec) according to manufacturer's instructions. Purity of separated T cells was analyzed by MACSQuant flow cytometry using the human 7-Color Immunophenotyping Kit (Miltenyi Biotec). Isolated T cells were resuspended in Stain Buffer with FBS (BD Pharmingen) and 1E5 cells in 100 μl per well were seeded in 96-well U-bottom suspension culture plates (Greiner bio-one). Fab antibodies were diluted 1:3 in serial in PBS (Invitrogen) and 5 μl each were added to the cells at a final maximum concentration of 30000 ng/ml. The assay was incubated for 45 min at 4° C. Cells were washed twice with Stain Buffer with FBS and 1 μg secondary antibody Goat F(ab′)2 Anti-Human kappa-FITC (Beckman Coulter, #732621) per well was added in 100 μl Stain Buffer with FBS per well. The assay was incubated for 20 min at 4° C. and washed twice afterwards. Cells were resuspended in 150 μl Stain Buffer with FBS per well and were measured using the MACSQuant (Miltenyi Biotec) or LSRII (BD) flow cytometer. Further data analyses were performed using the FlowJo software (Tree Star, Inc.). Read out was percentage of cells positive for antibody binding. Cells treated only with the secondary but no primary antibody were used to set the gates. EC50 Curves were calculated by XLfit (Algorithm 205), EC50 values were calculated as inflection point of the slope (data are shown in table 6).

[11] = target: T1, human CD3ε/δ-Fc fusion protein (soluble …); test: SPR Biacore, CD3εδ-Fc captured, Fab analyte
Experimental: as §1

[12] = target: T5, human CD3δ expressed alone on HEK293F cells (human, UniProt P04234 22-171); test: flow cytometry, HEK293F transfected with huCD3δ
T5 construct: entry includes the signal peptide; also called huCD3δ
T5 sequence (P04234 22-171 limits assumed, stated change not applied): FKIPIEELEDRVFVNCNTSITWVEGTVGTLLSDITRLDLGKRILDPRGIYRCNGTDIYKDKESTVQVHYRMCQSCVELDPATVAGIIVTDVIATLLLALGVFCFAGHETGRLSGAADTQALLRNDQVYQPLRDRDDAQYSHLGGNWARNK
How it was run: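 HEK293F cells transfected with huCD3δ alone, harvested 1–3 days post-transfection. Cells stained with 1 μg antibody for 30 min at 4 °C, then anti-human IgG-FITC or anti-human kappa-PE secondary plus 7-AAD for 15 min at 4 °C; binding read by flow cytometry.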

T1 sequence (chain, as listed by the source mutant, chain 1 of 2): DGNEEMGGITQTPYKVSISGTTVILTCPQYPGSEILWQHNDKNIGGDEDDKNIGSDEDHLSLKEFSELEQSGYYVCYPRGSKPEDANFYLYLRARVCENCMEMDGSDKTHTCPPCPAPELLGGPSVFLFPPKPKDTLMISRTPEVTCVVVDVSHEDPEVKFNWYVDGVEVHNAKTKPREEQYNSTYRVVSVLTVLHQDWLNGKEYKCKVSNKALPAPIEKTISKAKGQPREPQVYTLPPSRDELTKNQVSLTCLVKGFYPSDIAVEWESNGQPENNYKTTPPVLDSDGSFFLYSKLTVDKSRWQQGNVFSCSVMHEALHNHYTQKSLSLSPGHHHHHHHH
T1 sequence (P04234 22-105, stated change not applied, chain 2 of 2): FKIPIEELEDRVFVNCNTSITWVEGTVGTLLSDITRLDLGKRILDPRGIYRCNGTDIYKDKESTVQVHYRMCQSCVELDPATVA

B4: CODV-Fab 7G3x18F5 antibody-like binding protein (bispecific antibody)
light: DVLMTQTPVSLSVSLGGQVSISCRSSQSLVHTNGNTYLSWYLQKPGQSPQLLIYKVSNRLSGISDRFSGSGSGTDFTLKISRVEPDDLGVYYCGQGTHYPFTFGAGTKLELKGQPKAAPDFVMTQSPSSLTVTAGEKVTMSCKSSQSLLNSGNQKNYLTWYLQKPGQPPKLLIYWASTRESGVPDRFTGSGSGTDFTLTISSVQAEDLAVYYCQNDYSYPYTFGGGTKLEIKTKGPSRTVAAPSVFIFPPSDEQLKSGTASVVCLLNNFYPREAKVQWKVDNALQSGNSQESVTEQDSKDSTYSLSSTLTLSKADYEKHKVYACEVTHQGLSSPVTKSFNRGEC
heavy: EVQLQQSGPELVKPGASVKMSCKASGYTFTDYYMKWVKQSHGKSLEWIGDIIPSNGATFYNQKFKGKATLTVDRSSSTAYMHLNSLTSEDSAVYYCTRSHLLRASWFAYWGQGTLVTVSASEVQVVETGGSLVQPGKSLKLTCATSGFTFTNAWMHWVRRSPEKQLEWVAQIKDKSNNYATYYAESVKGRFTISRDDSKSSIYLQMNSLKEEDTAIYYCRYVHYRFAYALDAWGRGTSVSVSSRTASTKGPSVFPLAPSSKSTSGGTAALGCLVKDYFPEPVTVSWNSGALTSGVHTFPAVLQSSGLYSLSSVVTVPSSSLGTQTYICNVNHKPSNTKVDKKVEPKSCDKTHTHHHHHH
Activity EC50 [ng/ml], cytotoxic assay on THP-1 with human T cells [2]: 61 ng/mL

B5: 4B4-D7 Fab (Fab, V domains shown)
VH: EVQLVETGGRLVQPGRSLKLTCATSGFTFSNAWMHWVRQSPEKQLEWVAQIKARSNNYATYYAESVKGRFTISRDDSKSTIYLQMNSLKEEDTAIYYCRGTYYASKPFDYWGQGVMVTVSS
VL: DVVMTQTPVSLSVSLGGQVSISCRSSQSLVHDNGNTYLSWSLQRPGQSPQVLIYKVSNRFSGTSDRFTGSGSGTDFTLKISRVEPDDLGVYYCGQGTQYPFTFGSGTKLEIKR
notes: also called BDW-4B4-D7
Kd [4]: 27 nM
koff [4]: 0.0029 s⁻¹
kon [4]: 110000 M⁻¹ s⁻¹
Kd [5]: 8.79 nM
koff [5]: 0.00285 s⁻¹
kon [5]: 326000 M⁻¹ s⁻¹
RU of Fab binding at 100 nM [6]: 11 RU
RU of Fab binding at 100 nM [7]: 3 RU
% antibody positive transfected cells [8]: 71.5%
% antibody positive transfected cells [9]: 69.5%
EC50 [10]: 15.3 nM
Kd [11]: 27 nM
koff [11]: 0.0029 s⁻¹
kon [11]: 110000 M⁻¹ s⁻¹
binding result [12]: no binding (tested: <20% of binding of huCD3e + huCD3d)

Second part, led by results:

Kd [1]: 7 nM
koff [1]: 0.00051 s⁻¹
kon [1]: 72000 M⁻¹ s⁻¹
Kd [3]: 26.3 nM
koff [3]: 0.000571 s⁻¹
kon [3]: 21700 M⁻¹ s⁻¹
B1: CODV-Fab 7G3x20G6 antibody-like binding protein (bispecific antibody)
light: B4 light with L3V, T32N, L51S, L60F, I63F, E84D, H98Q, A105S, L111I
heavy: EVQLQQSGPELVKPGASVKMSCKASGYTFTDYYMKWVKQSHGKSLEWIGDIIPSNGATFYNQKFKGKATLTVDRSSSTAYMHLNSLTSEDSAVYYCTRSHLLRASWFAYWGQGTLVTVSASEVQLVETGGSLVQPGKSLKLTCATSGFTFTKAWMHWVRQSPEKQLEWVAQIKDKSNSYATYYAESVKGRFTISRDDSKSTIYLQMNSLKEEDTAIYYCRGVYYALSPFDYWGQGVMVTVSSRTASTKGPSVFPLAPSSKSTSGGTAALGCLVKDYFPEPVTVSWNSGALTSGVHTFPAVLQSSGLYSLSSVVTVPSSSLGTQTYICNVNHKPSNTKVDKKVEPKSCDKTHTHHHHHH
notes: formula I and formula II chains; hinge and His-tag added C-terminally to formula II; also called 7G3 × 20G6
Activity EC50 [ng/ml], cytotoxic assay on THP-1 with human T cells [2]: 18 ng/mL

Kd [1]: 16 nM
koff [1]: 0.0019 s⁻¹
kon [1]: 120000 M⁻¹ s⁻¹
B2: CODV-Fab 7G3x4E7 antibody-like binding protein (bispecific antibody)
light: B4 light with L3V, V30E, T32N, L51P, L60F, H98Q, A105P
heavy: EVQLQQSGPELVKPGASVKMSCKASGYTFTDYYMKWVKQSHGKSLEWIGDIIPSNGATFYNQKFKGKATLTVDRSSSTAYMHLNSLTSEDSAVYYCTRSHLLRASWFAYWGQGTLVTVSASEVQVVETGGSLVQPGKSLKLTCATSGFTFSNAWMHWVRQSPEKQLEWVAQIKDKSNNYATYYAESLKGRFTISRDDPKRSIYLQMNSLREEDTAIYYCRYVHYGIGYAMDAWGQGTSVTVSSRTASTKGPSVFPLAPSSKSTSGGTAALGCLVKDYFPEPVTVSWNSGALTSGVHTFPAVLQSSGLYSLSSVVTVPSSSLGTQTYICNVNHKPSNTKVDKKVEPKSCDKTHTHHHHHH
notes: also called 7G3 × 4E7
Activity EC50 [ng/ml], cytotoxic assay on THP-1 with human T cells [2]: 12 ng/mL

Kd [1]: 17 nM
koff [1]: 0.0044 s⁻¹
kon [1]: 270000 M⁻¹ s⁻¹
B3: CODV-Fab 7G3x4B4 antibody-like binding protein (bispecific antibody)
light: DVVMTQTPVSLSVSLGGQVSISCRSSQSLVHDNGNTYLSWSLQRPGQSPQVLIYKVSNRFSGTSDRFTGSGSGTDFTLKISRVEPDDLGVYYCGQGTQYPFTFGSGTKLEIKGQPKAAPDFVMTQSPSSLTVTAGEKVTMSCKSSQSLLNSGNQKNYLTWYLQKPGQPPKLLIYWASTRESGVPDRFTGSGSGTDFTLTISSVQAEDLAVYYCQNDYSYPYTFGGGTKLEIKTKGPSRTVAAPSVFIFPPSDEQLKSGTASVVCLLNNFYPREAKVQWKVDNALQSGNSQESVTEQDSKDSTYSLSSTLTLSKADYEKHKVYACEVTHQGLSSPVTKSFNRGEC
heavy: B1 heavy with S131R, K137R, T151S, K152N, D174A, K175R, S178N, V222T, L226S, S227K
notes: also called 7G3 × 4B4
Activity EC50 [ng/ml], cytotoxic assay on THP-1 with human T cells [2]: 11 ng/mL
